This test has as its target T1, CD22 (Homo sapiens, UniProt P20273).
T1 construct: host or cells: Raji cells
The test is described as follows: Binding of AGC1115 and AGC1100 to CD22-positive Raji cells by flow cytometry. The conditions noted are these: flow cytometry MFI, 1.5 h at 4° C., four-parameter fit, read-out: EC50 of fitted titration curve (binding potency). On the procedure:
Binding of AGC1115 and AGC1100 (anti-human CD22, Immunomedics; hLL2, #1003164, 10 mg/ml) to CD22-positive Raji cells (ATCC, #CCL-86) was analysed by flow cytometry. The EC50 value determined from the fitted curve was used for comparison of the antibody versus the antibody conjugate binding potency. This analysis was used to confirm that antibody conjugate binding potency to CD22 was unaffected by the conjugation procedure.
Raji cells were grown in RPMI 1640 (PAA; #E15-840) in the presence of 10% fetal bovine serum (FBS) and 1% penicillin/streptomycin. For the flow cytometry analysis 50 ml cell culture was harvested by centrifugation at 4° C. for 5 min at 340×g. […] Subsequently, 20 μl of the preparation of resuspended cells was diluted 1:500 in Coulter Isoton II Diluent, and counted using Beckman Coulter Z2 instrumentation (Beckman Coulter; CA, USA). […]
AGC1115 and AGC1100 was diluted to 50 μg/ml and titrated in twelve points in 3-fold dilution steps. […] All samples were analysed in a V-shaped bottom 96-well plate. Fluorescent signal was recorded on a Beckman Coulter Cell Lab Quanta SC MPL flow cytometer (Beckman Coulter; CA, USA). […]
Data was fitted using the “log(agonist) vs. response—Variable slope (four parameters)” binding model in Graph Pad Prism (PrismSoftware; CA, USA) and the EC50 values was calculated from the fit (FIG. 2).

Turning to “AGC1100: anti-CD22 monoclonal antibody hLL2, also called epratuzumab”, the EC50 came out at 9 nM.

For the origin of these results see patent US20150104385A1, “RADIO-PHARMACEUTICAL COMPLEXES” (Algeta ASA, priority 2012, published 2015).
